Results reported in patent US20080057063A1 (published 2008).

Key:
[1] = molecular target: T1, human αV on parental A375M cells, which express αVβ3 and αVβ5, but not αVβ6 (human, UniProt P06756 31-1048); assay: FACS, parental A375M cells (αVβ3, αVβ5)
T1 construct: whole, on cells; Two heterodimers (αVβ3, αVβ5) on one cell line; also called αVβ3 or αVβ5 integrins
Experimental: For this assay, cross-reactivity was tested on the supernatants using FACS analysis on parental A375M cells, which express αVβ3 and αVβ5, but not αVβ6.
The assays were performed as follows. […] The cells were then pelleted, the supernatant discarded, and resuspended in FACS buffer and incubated for 30 minutes at 37° C. Cells were then washed twice with FACS buffer and resuspended in a final volume of 100 μL FACS buffer per well.
Approximately 100,000 cells total, comprising a 50:50 mix of CFSE-labeled A375M cells and transfected 293 cells, were used in each reaction as follows. 100 μL of CFSE-labeled A375M cells and 100 μL of 293 cells were dispensed into a V-bottom plate. The cells in the plate were pelleted at 1500 rpm for 3 minutes, and then resuspended in 100 μL FACS buffer. The pelleting step was repeated, and the FACS buffer supernatant was removed. The harvested antibody-containing supernatants, or control primary antibodies were added in a volume of 50 μL and the cells were resuspended. […] The plate was incubated on ice for 45 minutes, after which 100 μL FACS buffer was added to dilute the primary antibody. The cells were then pelleted by centrifuging at 1500 rpm for 3 minutes, and the pellet was resuspended in 100 μL FACS buffer. The pelleting step was repeated, and the FACS buffer supernatant was removed. Cells were then resuspended in the appropriate secondary antibody (5 μg/ml) with 7AAD dye (10 μg/ml), and stained on ice for 7 minutes. Then 150 μL of FACS buffer was added and the cells were pelLeted at 1500 rpm for 3 minutes, after which the cells were washed in 100 μL FACS buffer, pelleted, and then resuspended in 250 μL buffer and added to FACS tubes.

[2] = molecular target: α4β1 integrin (on J6.77 cells) (UniProt P13612 34-1032; P05556 21-798, limits assumed); assay: cell-based or functional assay
[3] = molecular target: T2, human αVβ6 integrin on cells (human, UniProt P06756 31-1048; P18564 22-788); assay: cell-based or functional assay
[4] = molecular target: T2, human αVβ6 integrin on cells; assay: cell-based or functional assay; remark: listed apart in the source
cynomolgus αVβ6 on cells = molecular target: T3, cynomolgus αVβ6 on cells (cynomolgus, UniProt A0A2K5WCD3 31-1048; A0A2K5TZ36 22-787); assay: FACS, HEK-293 transfected with cynomolgus αV and β6
T3 construct: whole, on cells; also called macaque αVβ6; Mac AVB6
Experimental: Cross-reactivity of the antibody-containing supernatants to macaque αVβ6 was tested on the supernatants using FACS analysis on HEK-293 cells transiently transfected with cynomolgus αV and cynomolgus β6.
HEK-293 cells were transiently transfected with cynomolgus αV and cynomolgus β6. After 48 hours, the cells were collected and resuspended in FACS buffer to reach a final concentration of approximately 50,000 cells in 100 μL.
Approximately 100,000 cells total, comprising a 50:50 mix of CFSE-labeled A375M cells and transfected 293 cells, were used in each reaction as follows. 100 μL of CFSE-labeled A375M cells and 100 μL of 293 cells were dispensed into a V-bottom plate. The cells in the plate were pelleted at 1500 rpm for 3 minutes, and then resuspended in 100 μL FACS buffer. The pelleting step was repeated, and the FACS buffer supernatant was removed. The harvested antibody-containing supernatants, or control primary antibodies were added in a volume of 50 μL and the cells were resuspended. […] The plate was incubated on ice for 45 minutes, after which 100 μL FACS buffer was added to dilute the primary antibody. The cells were then pelleted by centrifuging at 1500 rpm for 3 minutes, and the pellet was resuspended in 100 μL FACS buffer. The pelleting step was repeated, and the FACS buffer supernatant was removed. Cells were then resuspended in the appropriate secondary antibody (5 μg/ml) with 7AAD dye (10 μg/ml), and stained on ice for 7 minutes. Then 150 μL of FACS buffer was added and the cells were pelLeted at 1500 rpm for 3 minutes, after which the cells were washed in 100 μL FACS buffer, pelleted, and then resuspended in 250 μL buffer and added to FACS tubes. Samples were analyzed on a high throughput FACS machine and analyzed using Cell Quest Pro software.

[5] = molecular target: T2, human αVβ6 integrin on cells; assay: FMAT, HEK 293 cells overexpressing αVβ6, supernatant

T1 sequence (P06756 31-1048 A375M): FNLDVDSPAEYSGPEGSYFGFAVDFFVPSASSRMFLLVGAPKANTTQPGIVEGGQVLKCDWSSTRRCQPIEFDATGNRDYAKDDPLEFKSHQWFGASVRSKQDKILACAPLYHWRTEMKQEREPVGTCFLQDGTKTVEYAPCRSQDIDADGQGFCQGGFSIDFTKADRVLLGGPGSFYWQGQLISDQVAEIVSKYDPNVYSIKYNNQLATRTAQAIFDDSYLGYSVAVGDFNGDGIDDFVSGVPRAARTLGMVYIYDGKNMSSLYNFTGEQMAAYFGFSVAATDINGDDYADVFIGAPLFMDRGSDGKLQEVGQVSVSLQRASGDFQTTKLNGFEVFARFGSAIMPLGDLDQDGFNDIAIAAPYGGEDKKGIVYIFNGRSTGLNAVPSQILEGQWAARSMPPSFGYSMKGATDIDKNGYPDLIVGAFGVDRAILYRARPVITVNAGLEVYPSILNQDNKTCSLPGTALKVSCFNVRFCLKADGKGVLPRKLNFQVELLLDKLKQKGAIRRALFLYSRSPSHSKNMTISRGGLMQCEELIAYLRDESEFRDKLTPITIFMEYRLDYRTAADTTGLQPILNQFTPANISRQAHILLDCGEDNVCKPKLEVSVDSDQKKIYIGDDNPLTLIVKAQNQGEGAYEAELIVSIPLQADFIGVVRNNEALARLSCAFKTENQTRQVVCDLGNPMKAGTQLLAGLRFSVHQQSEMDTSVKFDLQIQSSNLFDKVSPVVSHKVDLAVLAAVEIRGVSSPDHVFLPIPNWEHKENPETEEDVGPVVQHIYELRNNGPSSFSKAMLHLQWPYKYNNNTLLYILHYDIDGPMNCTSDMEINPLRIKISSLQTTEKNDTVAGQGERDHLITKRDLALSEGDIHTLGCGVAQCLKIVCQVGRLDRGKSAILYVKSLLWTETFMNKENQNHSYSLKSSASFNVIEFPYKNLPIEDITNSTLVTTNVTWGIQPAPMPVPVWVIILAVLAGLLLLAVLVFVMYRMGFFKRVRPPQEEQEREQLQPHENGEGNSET
T2 sequence (P06756 31-1048, chain 1 of 2): as the sequence (P06756 31-1048 A375M) above, with M345A counted along it
T2 sequence (P18564 22-788, chain 2 of 2): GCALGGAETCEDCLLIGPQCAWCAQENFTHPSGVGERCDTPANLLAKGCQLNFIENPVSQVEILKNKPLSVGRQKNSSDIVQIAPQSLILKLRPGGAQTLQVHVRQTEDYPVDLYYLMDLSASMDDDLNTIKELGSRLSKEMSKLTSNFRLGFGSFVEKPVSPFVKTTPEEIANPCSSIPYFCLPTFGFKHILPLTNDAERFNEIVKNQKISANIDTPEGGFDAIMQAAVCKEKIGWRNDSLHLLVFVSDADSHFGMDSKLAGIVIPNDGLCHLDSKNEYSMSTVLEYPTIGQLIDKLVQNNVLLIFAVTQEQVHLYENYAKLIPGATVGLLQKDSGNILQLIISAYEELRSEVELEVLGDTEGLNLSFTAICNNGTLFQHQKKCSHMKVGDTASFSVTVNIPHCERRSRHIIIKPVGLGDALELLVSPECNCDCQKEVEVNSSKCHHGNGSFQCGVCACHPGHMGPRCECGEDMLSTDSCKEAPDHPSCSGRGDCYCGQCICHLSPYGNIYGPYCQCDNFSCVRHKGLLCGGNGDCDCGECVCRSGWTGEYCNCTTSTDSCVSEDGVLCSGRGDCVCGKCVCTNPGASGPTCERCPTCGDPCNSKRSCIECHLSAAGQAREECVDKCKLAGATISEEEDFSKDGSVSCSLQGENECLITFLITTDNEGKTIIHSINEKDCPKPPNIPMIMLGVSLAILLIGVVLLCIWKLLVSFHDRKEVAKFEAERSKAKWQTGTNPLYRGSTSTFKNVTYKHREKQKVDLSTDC

B1: sc 49 (antibody, V domains shown)
VH: QVQLQESGPGLVKPSQTLSLTCTVAGGSIRSGDYYWSWIRQHPGKGLEWIGNIYYSGSTYYNPSLKSRITISVATSRNQFSLKLTSVTAADTAVYYCARGGAITIFGVFDYWGQGTLVTVSS
VL: not shown
notes: also called sc 049
Which “% Cells Shifted” value [1] does the source give for B1 here?
The value was 20%.

What about the GeoMean [1] of the same binder?
Its GeoMean is 1.74.

B2: sc 97 (antibody, V domains shown)
VH: EVQLVQSGAEVKKPGESLKISCKGSGYSFTSYWIGWVRQMPGKGLEWMGIIYPGDSDTRYSPSFQGQVILSADKSISTAYLQWSSLKASDTAMYYCARHDESSGYYYVFDIWGQGTMVTVSS
VL: SYELTQPPSVSVSPGQTARITCSGDALPKKYAYWYQQKSGQAPVLVIYEDIKRPSGIPERFSGSSSGTMATLTISGAQVEDEADYYCYSTDSSGNHWVFFGGGTKLTVL
notes: also called sc 097
B2 was tested. Which “Percent Inhibition (J6.77 adhesion to CS-1 peptide of fibronectin, 5 ug/ml)” value (from here on “Percent Inhibition”) [2] did it give?
Its value is -7%.

And the “% Cells Shifted” value [1]?
Its value is 24%.

And the GeoMean [1]?
The GeoMean was 1.84.

B3: sc 58 (antibody, V domains shown)
VH: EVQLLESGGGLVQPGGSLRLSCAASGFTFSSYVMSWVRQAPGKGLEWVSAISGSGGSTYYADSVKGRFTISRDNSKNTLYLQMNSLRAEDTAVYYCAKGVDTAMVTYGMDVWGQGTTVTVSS
VL: SYELTQPPSVSVSPGQTARITCSGDALPKKYAYWYQQKSGQAPVLVIYDDSKRPSGIPERFSGSSSGTMATLTISGAQVEDEADYYCYSTDSSGNHRVFGGGTKLTVL
notes: also called sc 058
What does the source list for B3?
Percent Inhibition (J6.77 adhesion to CS-1 peptide of fibronectin, 5 ug/ml) [2]: -14%; Estimated IC50, n = 1 (HT29 adhesion to TGFβLAP) [3]: 4.07 µg/mL; Estimated IC50, n = 2 (HT29 adhesion to TGFβLAP) [3]: 2.03 µg/mL; Estimated IC50, n = 3 (HT29 adhesion to TGFβLAP) [3]: 3.26 µg/mL; Assay 1 % Inhibition (HT29 adhesion to TGFβLAP) [4]: 77%; Assay 2 % Inhibition (HT29 adhesion to TGFβLAP) [4]: 46%; Average % Inhibition (HT29 adhesion to TGFβLAP) [4]: 62%; % Cells Shifted [1]: 18%; GeoMean [1]: 1.78

B4: sc 320 (antibody, V domains shown)
VH: EVQLVESGGGLVKPGGSLRLSCAASGYTFTNYIMHWVRQAPGKGLEWVSSISISSSYIYYADSVKGRFTISRDNAKNSLYLQMNSLRAEDTAVYYCARDPVPLERRDYYYGMDVWGQGTTVTVSS
VL: QSVLTQPPSMSAAPGQKVTISCSGSSSNIGNNYVSWYQQLPGTAPKLLIYDNNKRPSGIPDRFSGSKSGTSATLGITGLQTGDEADYYCGTWDSSLSAGVFGGGTKLTVL
How did the “Percent Inhibition” value [2] turn out when B4 was run?
The value was -8%.

What about the “% Cells Shifted” value [1] of the same binder?
Its value is 15%.

And the GeoMean [1]?
Its GeoMean is 23.2.

B5: sc 374 (antibody, V domains shown)
VH: QVQLVESGGGVVQPGRSLRLSCAASGFTFSSYGMHWVRQAPGKGLEWVAVIWYDGSNKYYADSVKGRFTISRDNSKNTLYLQMNSLRAEDTAVYYCARTEGIAARLYYYYGMDVWGQGTTVTVSS
VL: not shown
For B5, which GeoMean (cynomolgus αVβ6 on cells) is on record?
The GeoMean was 61.8.

What about the GeoMean [1] of the same binder?
The GeoMean was 2.14.

B6: sc 161 (antibody, V domains shown)
VH: EVQLVQSGAEVKKPGESLKISCKGSGYSFTSYWIGWVRQMPGKGLEWMGIIYPGDSDTRYSPSFQGQVTISADKSISTAYLQWSSLKASDTAMYYCARHGIAAAGFYYYYMDVWGQGTTVTVSS
VL: EIVLTQSPDTLSLSPGERASLSCRASQNVNRNYLVWYQQKPGQAPRLLIYGTSNRATGIPDRFSGSGSGTDFTLTISRLEPEDFAVYYCQQCGSLPFTFGPGTKVDIKR
Which “Percent Inhibition” value [2] does the source give for B6 here?
Its value is 12%.

What about the “FMAT Count” value [5] of the same binder?
The value was 23.

What about the “FMAT FL1” value [5] of the same binder?
Its value is 725.

And the “FMAT FL1 × Count” value [5]?
The value was 16700.

What about the “% Cells Shifted” value (cynomolgus αVβ6 on cells) of the same binder?
The value was 14%.

What about the GeoMean (cynomolgus αVβ6 on cells) of the same binder?
Its GeoMean is 33.

What about the “Estimated IC50, n = 1 (HT29 adhesion to TGFβLAP)” value [3] of the same binder?
The value was 2.41 µg/mL.

And the “Estimated IC50, n = 2 (HT29 adhesion to TGFβLAP)” value [3]?
Its value is 0.137 µg/mL.

What about the “Assay 1 % Inhibition (HT29 adhesion to TGFβLAP)” value [4] of the same binder?
Its value is 98%.

What about the “Assay 2 % Inhibition (HT29 adhesion to TGFβLAP)” value [4] of the same binder?
Its value is 106%.

What about the “Average % Inhibition (HT29 adhesion to TGFβLAP)” value [4] of the same binder?
Its value is 102%.

And the “% Cells Shifted” value [1]?
The value was 11%.

And the GeoMean [1]?
Its GeoMean is 16.7.
